Biological target: T1, recombinant purified full-length AurA (His-AurA) (UniProt O14965 1-403)
T1 sequence (looked up): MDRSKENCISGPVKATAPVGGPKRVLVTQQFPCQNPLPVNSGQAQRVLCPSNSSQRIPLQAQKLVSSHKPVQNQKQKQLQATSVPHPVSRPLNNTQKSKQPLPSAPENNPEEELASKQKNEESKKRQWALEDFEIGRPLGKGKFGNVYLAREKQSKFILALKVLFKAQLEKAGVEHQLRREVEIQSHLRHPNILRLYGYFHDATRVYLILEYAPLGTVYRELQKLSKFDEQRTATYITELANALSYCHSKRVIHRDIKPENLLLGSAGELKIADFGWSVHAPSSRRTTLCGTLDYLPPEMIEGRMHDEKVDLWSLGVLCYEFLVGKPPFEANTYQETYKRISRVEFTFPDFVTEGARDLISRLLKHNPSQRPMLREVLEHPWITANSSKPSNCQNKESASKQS
Experiment: pull-down

- binding result: binds
B1: GST fused to aa 779-968 of the PC2 C terminus (domain or fragment, human, UniProt Q13563 779-968, looked up)
chain: RDDLEKEREDLDLDHSSLPRPMSSRSFPRSLDDSEEDDDEDSGHSSRRRGSISSGVSYEEFQVLVRRVDRMEHSIGSIVSKIDAVIVKLEIMERAKLKRREVLGRLLDGVAEDERLGRDSEIHREQMERLVREELERWESDDAASQISHGLGTPVGLNGQPRPRSSRPSSSQSTEGMEGAGGNGSSNVHV

Reference: publication PMC3115793 (The Journal of Cell Biology, 2011)
